Source: the nanobody polyreactivity screen of Harvey et al. (2022)

Assay: yeast display, Sf9 membrane polyspecificity reagent, FACS + sequencing; frameworks hold sequencing errors
How it was run: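 Synthetic nanobody libraries on Saccharomyces cerevisiae BJ5465 were galactose-induced for 36–48 hours, stained 1 hour at 4 °C with 10% biotinylated, detergent-solubilized Sf9 membrane reagent and enriched on streptavidin microbeads. FACS then separated cells into low and high (top ~1%) gates by anti-HA (expression) and streptavidin (reagent binding) fluorescence. Genes were colony-PCR amplified, MiSeq 2 × 250 sequenced and CDR-length filtered. A clone's polyreactivity label is that of its gate of origin.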

| Sequence | polyreactivity (PSR sort gate) |
| --- | --- |
| QVQLVESGGGLVQAGGSLRLSCAASGYIFHYNTMGWYRQAPGKERELVAAITWSGGNTYYADSVKGRFTISRDNAKNTVYLQMNSLKPEDTAVYYFAKLNYSPEATRSNYWGQGTQVTVSS | low polyreactivity |
| QVQLVESGGGLVQAGGSLRLSCAASGYIFILYAKGWYRQATGKERQLVATISSNAVSTYYADSVKGRFTISRDNAKITVYLQMNSLKPEDTAVYYCNVEYTPNTVSGYDYWGQGTQVTVSS | low polyreactivity |
| QVQLVESGGGLVQAGGSLRLSCAASGYIFIRNAMGWYRQAPGKERELVAAISWTGGSTYYADSVKGRFTISRDNAKNTVYLQMNSLKPEDTAVYYCNKYYRAWLLWDYGYWGQGTQVTVSS | high polyreactivity |
| QVQLVESGGGLVQAGGSLRLSCAASGYIFIWYDMGGYRQAPGKERELVAAISGSGGSTYYADSVKGRFTISRDNAKNTVYLQMNSLKPEDTAVYYCAAVPAHFYGYDYWGQGTQVTVSS | low polyreactivity |
| QVQLVESGGGLVQAGGSLRLSCAASGYIFKYNAMGWYRQAPGKERELVATIRGGGSTNYADSVKGRFTISRDNAKNTVYLQMNSLKPEDTAVYYCAAVQRYEYGYWGQGTQVTVSS | high polyreactivity |
| QVQLVESGGGLVQAGGSLRLSCAASGYIFLFYGMGWYRPAPGKERELVAAITYGGGSTYYADSVKGRFTISRDNAKNTVYLQMNSLKPEDTAVYYCNAPSRLSTIFYSGYDYWGQGTQVTVSS | low polyreactivity |
| QVQLVESGGGLVQAGGSLRLSCAASGYIFLNYAMGWYRQAPGKEREFVATITSSGGTTYYADSVKGRFTISRDNAKNTVYLQMNSLKPEDTAVYYCNADAGWYDWVYYVGRDYWGQGTQVTVSS | low polyreactivity |
| QVQLVESGGGLVQAGGSLRLSCAASGYIFLRNAMAWYTKAPGKERELVAAIRRTGGSTYYADSVKGRFTISRDNAKNTVYLQMNSLKPEDTAVYYCAKRSYTGYEYWGQGTQVTVSS | low polyreactivity |
| QVQLVESGGGLVQAGGSLRLSCAASGYIFLRNAMGWSRQAPGKERELVAAIRRTGGSTYYADSVKGRFTISRDNAKNTVYLQMNSLKPEVTAVYYCAKRSYTGYEYWGQGTQVTVSS | low polyreactivity |
| QVQLVESGGGLVQAGGSLRLSCAASGYIFLSYAMGWYIQAPGKERELVAAISRGGRTYYADSVKGRFTISRDNAKNTVYLQMNSLKPEDTAVYYCNAVSTPGKYGYWGQGTQVTVSS | high polyreactivity |
| QVQLVESGGGLVQAGGSLRLSCAASGYIFNKYVMGWYRQAPGKERELVAAISASGGSTYYADSVKGRFTISRDNAKNTVYLQMNSLKPEDTAVYYCAATLYRRMDYWGQGTQVTVSS | high polyreactivity |
| QVQLVESGGGLVQAGGSLRLSCAASGYIFNKYVMGWYRQAPGKERELVAAISASGGSTYYADSVKGRFTISRDNAKNTVYLQMNSLKPEDTSVYYCAATLYRRMDYWGQGTQVTVSS | high polyreactivity |
| QVQLVESGGGLVQAGGSLRLSCAASGYIFPFNAMGWYRQAPGKERELVAAITNGGRTYYADSVKGRFTISRDNAKNTVYLQMNSLKPEDTAVYYCAAGSKSDMDWGQGTQVTVSS | low polyreactivity |
| QVQLVESGGGLVQAGGSLRLSCAASGYIFQDYAMGWYRQAPAKERELVARISAGGGRTYYADSVKGRFTISRENAMNTVYLQMNSLKPEDTAVYYCAAPLSYSWVYIVRYGYDYWGQGTQVTVSS | low polyreactivity |
| QVQLVESGGGLVQAGGSLRLSCAASGYIFQPYAMGWYRQAPGKERELVAAISWRGGSTYYADSVKGRFTISRDNAKNTVYLQMNSLKPEDTAVYYCAVDAWDTTHVYEQGAERDSWGQGTQVTVSS | low polyreactivity |
| QVQLVESGGGLVQAGGSLRLSCAASGYIFRVYAMGWYRQAPGKERELVAAISGSGGRTYYADSVKGRFTISRDNAKNTVSLQMNSLKPEDTAVYYCAAYRVSDYDYWGQGTQVTVSS | high polyreactivity |
| QVQLVESGGGLVQAGGSLRLSCAASGYIFRYYAMGWYRQAPGKERELVAAISRSGGNTYYADSVKGRFTISRDNAMITVYLQMNSLKPEDTAVYYCAVVLSTYSYADYDYWGQGTQVTVSS | high polyreactivity |
| QVQLVESGGGLVQAGGSLRLSCAASGYIFSINAMGWYRQAPGKERELVAAITSSGGSTYYADSVKGRFTISRDNAKNTVYLQMNSLKPEDTAVYYCNAYVRRTRDYDYWGQGTQVTVSS | high polyreactivity |
| QVQLVESGGGLVQAGGSLRLSCAASGYIFSSYAMGWYRQAPGKERELVAAISWTGGTYYADSVKGRFTISRDNAKNTVYLQMNSLKPEDTAVYYCAVRYKRKGSGYRTNAYDYWGQGTQVTVSS | high polyreactivity |
| QVQLVESGGGLVQAGGSLRLSCAASGYIFSYNAMGWYRQAPGKERELVAAITASGGGTYYADSVKGRFTISRDNAKNTVYLQMNSLKPDDTAVYYCAATPYSTQGLRPKFDYWGQGTQVTVSS | low polyreactivity |
| QVQLVESGGGLVQAGGSLRLSCAASGYIFSYYAMGWYRQAPGKEREFVAAIRWRGGSTYYADSVKGRFTISRDNAKKTVYLQMNSLKPEDTAVYYCAAGPGTSYYWGQGTQVTVSS | high polyreactivity |
| QVQLVESGGGLVQAGGSLRLSCAASGYIFSYYAMGWYRQAPGKEREFVAAIRWRGGSTYYADSVKGRFTISRDNAKNTVYLQMNSLKPEDTAVYYCAAGPGTSYYWGQGTQVTVSS | high polyreactivity |

| Sequence | polyreactivity (PSR sort gate) |
| --- | --- |
| QVQLVESGGGLVQAGGSLRLSCAASGYIFTDYDMGWYRPAPGKEREFVAAISSSGGSTYYADSVKGRFTISRDNAKNTVYLQMNRLKPEDTAVYYCAARRRYGRYRGAYDYWGQGTRVTVSS | high polyreactivity |
| QVQLVESGGGLVQAGGSLRLSCAASGYIFTIYAMGWYRQAPGKERELVAAITWSGATTYYADSVKGRFTISRDNAKNTVYLQMNSLKPEDTAVYYCNADYWHYYEDYDSWGQGTQVTVSS | low polyreactivity |
| QVQLVESGGGLVQAGGSLRLSCAASGYIFTVYAMGWYRQAPGKERELVAAINWSDGSTYYADSVKGRFTISRDNAKNTVYLQMNSLKPEDTAVYYCAAESRYQRYDYWGQGTQVTVSS | high polyreactivity |
| QVQLVESGGGLVQAGGSLRLSCAASGYIFTYNAMGWYRQAPGKERELVAAISYSGGSTYYADSVKGRFTISRDNAKNTVYLQINSLNPEDTAVYYCNAVWRHTYGNYFWGQGTQVTVSS | high polyreactivity |
| QVQLVESGGGLVQAGGSLRLSCAASGYIFTYTMGWYRQAPGKERELVAAISKSGGSTYYADSVKGRFTLSRDNAKNTVYLQMNSLKPEDTAVYYCARRGRYYLYTDDYDYWGQGTQVTVSS | high polyreactivity |
| QVQLVESGGGLVQAGGSLRLSCAASGYIFVYNAMGWYRQAPGKERELVAAISTTGGRTYYADSVKGRFTISRDNAKNTVYLLMNSLKPEDTAVYYCAARAYYAWTLFGYWGQGTQVTVSS | high polyreactivity |
| QVQLVESGGGLVQAGGSLRLSCAASGYIFWKNAMGWYRQAPGKERELVAGITIRGGRTYYADSVKGRFTISRDNAKNTVYLQMNSLKPEDTAVYYCNALYDYYDPYGSWGQGTQVTVSS | high polyreactivity |
| QVQLVESGGGLVQAGGSLRLSCAASGYIFWLNALGWYRQAPGKERELVAAIRSSGGSTYYADSVKGRFTISRDNAKNTVYLQMNSLKPEDTAVYDCARRGYNWYTHFGYDYWGQGTQVTVSS | low polyreactivity |
| QVQLVESGGGLVQAGGSLRLSCAASGYIFWYNAMGWYRQAPGKERELVAAISRSGGRTYYADSVKGRCTISRDNAKNTVYLQMNSLKPDDTAVYYCAAGSSHHYVYEGGYWGQGTQVTVSS | low polyreactivity |
| QVQLVESGGGLVQAGGSLRLSCAASGYIFYGYAMGWYRQAHGKERELVAAITVRGGSTYYADSVKGRFTISRDNAKNTVYLQMNSLNPEDTAVYYWAAAPQFTVGVGYWGQGTQVTVSS | low polyreactivity |
| QVQLVESGGGLVQAGGSLRLSCAASGYIFYGYDMGWYRQAQGKERDLVAGITYSGGGGTHYADSVKGRFTISRDNAKNTVYLQMNSLKPEDTAVYYCAKADPQLNRNYYSYGMDYWGQGTQVTVSS | low polyreactivity |
| QVQLVESGGGLVQAGGSLRLSCAASGYIFYYNGMGWYRQAPGKERELVAVISRRGGSTYYADSVKGRFTISRDNAKNTVYLQMNSLKPEDTAVYYCNARARSSRTYKYDYWGQGTQVTVSS | high polyreactivity |
| QVQLVESGGGLVQAGGSLRLSCAASGYIFYYYAMGWYRQAPGKERELVAAISSGGSTSYADSVKGRFTISRDNAKNTVYLQMNSLKPEDTAVYYCAAYKPWYVGLYPWYDYWGQGTQVTVSS | low polyreactivity |
| QVQLVESGGGLVQAGGSLRLSCAASGYIIDVNTMGWYRPAPGKDRELVAAITSGGTTYYADSVKGRFTISRDNAKNTVYLQMNSLKPEDTAAYYCAALWSRRRSRPSFDYWGQGTQVTVSS | high polyreactivity |
| QVQLVESGGGLVQAGGSLRLSCAASGYIIGRYVMGWYRQAPGKERELVAAITASGGSTYYADSVKGRFTISRDNAKNTVYLQMNSLKPEDTAVYYCAAPTYGRFLRNDYWGQGTQVTVSS | high polyreactivity |
| QVQLVESGGGLVQAGGSLRLSCAASGYIIWSYAMGWYRQAPGKERELVAGISYSGGSTYYADSVKGRFTISRDNAKNTVYLQMNSLKPEDTAVFYCAALRRGYVPFGYWGQGTQVTVSS | high polyreactivity |
| QVQLVESGGGLVQAGGSLRLSCAASGYILGRYAMGWSRQAPGNERELVAAITSGASTYYADSVKGRFTISRDNAKNTVYLQMNSLKPEDTAVYYCARVNGAKQGGEYDYWGQGTQVTVSS | high polyreactivity |
| QVQLVESGGGLVQAGGSLRLSCAASGYILRSNAMGWYRQAPGKEREFVAAITYSGGSTYYADSVKGRFTISRDNAKNTVYFQRNSLKPEATAVYSCSKTTRYRRGYGYWGQGTEVTVSS | low polyreactivity |
| QVQLVESGGGLVQAGGSLRLSCAASGYILTHYAMGWYRQAPGKERELVAAITRVGNTNYADSVKGRFTISRDNAKNTVYLQMNSLKPEDTAVYYCAADGVASLFGDPPTEFDYWGQGTQVTVSS | low polyreactivity |
| QVQLVESGGGLVQAGGSLRLSCAASGYILYGNTMGWYRQAPGKERELVAAISGGGSTNYADSVKGRFTISRDNAKNTVYLQMNSLKPEETAVYYCAVDVKIGTDFIGVVIPGDYWGQGTQVTVSS | low polyreactivity |
| QVQLVESGGGLVQAGGSLRLSCAASGYIYRYNAMGWYRQAPGKEREFVASISQRGGSTYYADSVKGRFTISRDNAKNTVYLQMNSLKPEDTAVYYCAARLGYYSYEYNYWGQGTQVTVSS | high polyreactivity |
